doi:10.1101/2021.08.20.457142

B1: MKK7 D-site peptide (second D-site) / JNK1 alpha1 (MAPK8 isoform 1) L198A, full length (parent complex)
chain 1: SQPQRPRPTLQLPLANEAFEQP
chain 2: MSRSKRDNNFYSVEIGDSTFTVLKRYQNLKPIGSGAQGIVCAAYDAILERNVAIKKLSRPFQNQTHAKRAYRELVLMKCVNHKNIIGLLNVFTPQKSLEEFQDVYIVMELMDANLCQVIQMELDHERMSYLLYQMLCGIKHLHSAGIIHRDLKPSNIVVKSDCTLKILDFGLARTAGTSFMMTPYVVTRYYRAPEVIAGMGYKENVDLWSVGCIMGEMVCHKILFPGRDYIDQWNKVIEQLGTPCPEFMKKLQPTVRTYVENRPKYAGYSFEKLFPDVLFPADSEHNKLKASQARDLLSKMLVIDASKRISVDEALQHPYINVWYDPSEAEAPPPKIPDKQLDEREHTIEEWKELIYKEVMDLEERTKNGVIRGQPSPLAQVQQ

Variants of: B1

screen value | Variant
1.88 Z-score of the enrichment rate within one screen of 711 sequences | chain 1 P8L
0.971 Z-score of the enrichment rate within one screen of 711 sequences | chain 1 P8W
1.67 Z-score of the enrichment rate within one screen of 711 sequences | chain 1 P8F
2.24 Z-score of the enrichment rate within one screen of 711 sequences | chain 1 P8M
0.848 Z-score of the enrichment rate within one screen of 711 sequences | chain 1 P8V
1.01 Z-score of the enrichment rate within one screen of 711 sequences | chain 1 P8K
0.584 Z-score of the enrichment rate within one screen of 711 sequences | chain 1 P8N
0.845 Z-score of the enrichment rate within one screen of 711 sequences | chain 1 P8I
0.499 Z-score of the enrichment rate within one screen of 711 sequences | chain 1 P8Q
0.83 Z-score of the enrichment rate within one screen of 711 sequences | chain 1 P8C
-0.345 Z-score of the enrichment rate within one screen of 711 sequences | chain 1 R7A, chain 1 L14A
1.51 Z-score of the enrichment rate within one screen of 711 sequences | chain 1 Q11I
1.89 Z-score of the enrichment rate within one screen of 711 sequences | chain 1 Q11H
2.32 Z-score of the enrichment rate within one screen of 711 sequences | chain 1 Q11T
0.875 Z-score of the enrichment rate within one screen of 711 sequences | chain 1 Q11G
1.43 Z-score of the enrichment rate within one screen of 711 sequences | chain 1 Q11E
2.17 Z-score of the enrichment rate within one screen of 711 sequences | chain 1 Q11W
1.43 Z-score of the enrichment rate within one screen of 711 sequences | chain 1 Q11C
1.79 Z-score of the enrichment rate within one screen of 711 sequences | chain 1 Q11N
2.41 Z-score of the enrichment rate within one screen of 711 sequences | chain 1 Q11Y
-0.742 Z-score of the enrichment rate within one screen of 711 sequences | chain 1 T9A, chain 1 L12A
0.351 Z-score of the enrichment rate within one screen of 711 sequences | chain 1 R5A, chain 1 P6A
0.334 Z-score of the enrichment rate within one screen of 711 sequences | chain 1 R7A, chain 1 N16A
0.9 Z-score of the enrichment rate within one screen of 711 sequences | chain 1 P3A, chain 1 P6A
0.0948 Z-score of the enrichment rate within one screen of 711 sequences | chain 1 Q4A, chain 1 R7A

screen value | Variant
0.713 Z-score of the enrichment rate within one screen of 711 sequences | chain 1 P6C
1.26 Z-score of the enrichment rate within one screen of 711 sequences | chain 1 P6Q
1.29 Z-score of the enrichment rate within one screen of 711 sequences | chain 1 P6A
1.07 Z-score of the enrichment rate within one screen of 711 sequences | chain 1 P6T
1.12 Z-score of the enrichment rate within one screen of 711 sequences | chain 1 P6H
1.06 Z-score of the enrichment rate within one screen of 711 sequences | chain 1 P6F
0.968 Z-score of the enrichment rate within one screen of 711 sequences | chain 1 P6V
1.25 Z-score of the enrichment rate within one screen of 711 sequences | chain 1 P6L
1.34 Z-score of the enrichment rate within one screen of 711 sequences | chain 1 P3A, chain 1 N16A
0.344 Z-score of the enrichment rate within one screen of 711 sequences | chain 1 R5A, chain 1 Q11A
-0.406 Z-score of the enrichment rate within one screen of 711 sequences | chain 1 R5A, chain 1 L14A
-0.374 Z-score of the enrichment rate within one screen of 711 sequences | chain 1 L10A, chain 1 P13A
0.697 Z-score of the enrichment rate within one screen of 711 sequences | chain 1 Q4A, chain 1 P8A
-0.637 Z-score of the enrichment rate within one screen of 711 sequences | chain 1 L12E
-0.205 Z-score of the enrichment rate within one screen of 711 sequences | chain 1 L12V
-0.321 Z-score of the enrichment rate within one screen of 711 sequences | chain 1 L12N
-0.457 Z-score of the enrichment rate within one screen of 711 sequences | chain 1 L12C
-0.637 Z-score of the enrichment rate within one screen of 711 sequences | chain 1 L12P
0.938 Z-score of the enrichment rate within one screen of 711 sequences | chain 1 L12I
-0.706 Z-score of the enrichment rate within one screen of 711 sequences | chain 1 L12A
-0.687 Z-score of the enrichment rate within one screen of 711 sequences | chain 1 R5A, chain 1 L10A
-0.882 Z-score of the enrichment rate within one screen of 711 sequences | chain 1 L10A, chain 1 L14A
-0.672 Z-score of the enrichment rate within one screen of 711 sequences | chain 1 L10G
-0.363 Z-score of the enrichment rate within one screen of 711 sequences | chain 1 L10R
-0.588 Z-score of the enrichment rate within one screen of 711 sequences | chain 1 L10T

screen value | Variant
-0.341 Z-score of the enrichment rate within one screen of 711 sequences | chain 1 L10V
-0.671 Z-score of the enrichment rate within one screen of 711 sequences | chain 1 L10N
-0.392 Z-score of the enrichment rate within one screen of 711 sequences | chain 1 L10A
-0.494 Z-score of the enrichment rate within one screen of 711 sequences | chain 1 L10P
-0.668 Z-score of the enrichment rate within one screen of 711 sequences | chain 1 L10S
-0.57 Z-score of the enrichment rate within one screen of 711 sequences | chain 1 Q4A, chain 1 L10A
0.594 Z-score of the enrichment rate within one screen of 711 sequences | chain 1 R5P
0.772 Z-score of the enrichment rate within one screen of 711 sequences | chain 1 R5I
0.263 Z-score of the enrichment rate within one screen of 711 sequences | chain 1 R5A
0.07 Z-score of the enrichment rate within one screen of 711 sequences | chain 1 R5E
0.845 Z-score of the enrichment rate within one screen of 711 sequences | chain 1 R5W
-0.21 Z-score of the enrichment rate within one screen of 711 sequences | chain 1 R5D
0.568 Z-score of the enrichment rate within one screen of 711 sequences | chain 1 R5V
0.357 Z-score of the enrichment rate within one screen of 711 sequences | chain 1 P3A, chain 1 P8A
-0.68 Z-score of the enrichment rate within one screen of 711 sequences | chain 1 P6A, chain 1 L12A
1.59 Z-score of the enrichment rate within one screen of 711 sequences | chain 1 A15F
1.42 Z-score of the enrichment rate within one screen of 711 sequences | chain 1 A15V
1.58 Z-score of the enrichment rate within one screen of 711 sequences | chain 1 A15T
1.46 Z-score of the enrichment rate within one screen of 711 sequences | chain 1 A15S
1.73 Z-score of the enrichment rate within one screen of 711 sequences | chain 1 A15K
1.51 Z-score of the enrichment rate within one screen of 711 sequences | chain 1 A15Q
1.84 Z-score of the enrichment rate within one screen of 711 sequences | chain 1 A15W
1.37 Z-score of the enrichment rate within one screen of 711 sequences | chain 1 A15E
0.806 Z-score of the enrichment rate within one screen of 711 sequences | chain 1 A15I
1.49 Z-score of the enrichment rate within one screen of 711 sequences | chain 1 A15C

screen value | Variant
1.22 Z-score of the enrichment rate within one screen of 711 sequences | chain 1 P3D
1.46 Z-score of the enrichment rate within one screen of 711 sequences | chain 1 P3N
1.41 Z-score of the enrichment rate within one screen of 711 sequences | chain 1 P3I
1.46 Z-score of the enrichment rate within one screen of 711 sequences | chain 1 P3F
1.81 Z-score of the enrichment rate within one screen of 711 sequences | chain 1 P3M
1.59 Z-score of the enrichment rate within one screen of 711 sequences | chain 1 P3V
-0.492 Z-score of the enrichment rate within one screen of 711 sequences | chain 1 R7A, chain 1 L12A
0.748 Z-score of the enrichment rate within one screen of 711 sequences | chain 1 R5A, chain 1 P13A
0.477 Z-score of the enrichment rate within one screen of 711 sequences | chain 1 P8A, chain 1 T9A
0.299 Z-score of the enrichment rate within one screen of 711 sequences | chain 1 P8A, chain 1 P13A
0.257 Z-score of the enrichment rate within one screen of 711 sequences | chain 1 R5A, chain 1 T9A
1.38 Z-score of the enrichment rate within one screen of 711 sequences | chain 1 P13L
1.44 Z-score of the enrichment rate within one screen of 711 sequences | chain 1 P13H
1.95 Z-score of the enrichment rate within one screen of 711 sequences | chain 1 P13D
1.22 Z-score of the enrichment rate within one screen of 711 sequences | chain 1 P13V
1.87 Z-score of the enrichment rate within one screen of 711 sequences | chain 1 P13N
1.52 Z-score of the enrichment rate within one screen of 711 sequences | chain 1 P13Q
1.25 Z-score of the enrichment rate within one screen of 711 sequences | chain 1 P13C
1.22 Z-score of the enrichment rate within one screen of 711 sequences | chain 1 P13S
1.33 Z-score of the enrichment rate within one screen of 711 sequences | chain 1 L14F
0.866 Z-score of the enrichment rate within one screen of 711 sequences | chain 1 L14K
1.9 Z-score of the enrichment rate within one screen of 711 sequences | chain 1 L14I
0.409 Z-score of the enrichment rate within one screen of 711 sequences | chain 1 L14D
0.9 Z-score of the enrichment rate within one screen of 711 sequences | chain 1 L14T
0.48 Z-score of the enrichment rate within one screen of 711 sequences | chain 1 L14A

screen value | Variant
0.833 Z-score of the enrichment rate within one screen of 711 sequences | chain 1 L14R
0.293 Z-score of the enrichment rate within one screen of 711 sequences | chain 1 R5A, chain 1 P8A
-0.162 Z-score of the enrichment rate within one screen of 711 sequences | chain 1 R5A, chain 1 R7A
-0.522 Z-score of the enrichment rate within one screen of 711 sequences | chain 1 R5A, chain 1 L12A
1.2 Z-score of the enrichment rate within one screen of 711 sequences | chain 1 Q4A, chain 1 P13A
-0.643 Z-score of the enrichment rate within one screen of 711 sequences | chain 1 P8A, chain 1 L14A
0.343 Z-score of the enrichment rate within one screen of 711 sequences | chain 1 P8A, chain 1 Q11A
1.11 Z-score of the enrichment rate within one screen of 711 sequences | chain 1 P13A, chain 1 N16A
0.359 Z-score of the enrichment rate within one screen of 711 sequences | chain 1 Q4A, chain 1 R5A
-0.67 Z-score of the enrichment rate within one screen of 711 sequences | chain 1 P8A, chain 1 L10A
1.38 Z-score of the enrichment rate within one screen of 711 sequences | chain 1 Q11A, chain 1 P13A
0.507 Z-score of the enrichment rate within one screen of 711 sequences | chain 1 T9E
0.994 Z-score of the enrichment rate within one screen of 711 sequences | chain 1 T9Q
1.24 Z-score of the enrichment rate within one screen of 711 sequences | chain 1 T9L
1.06 Z-score of the enrichment rate within one screen of 711 sequences | chain 1 T9M
1.27 Z-score of the enrichment rate within one screen of 711 sequences | chain 1 T9C
1.21 Z-score of the enrichment rate within one screen of 711 sequences | chain 1 T9W
1.43 Z-score of the enrichment rate within one screen of 711 sequences | chain 1 T9F
1.34 Z-score of the enrichment rate within one screen of 711 sequences | chain 1 T9H
1.15 Z-score of the enrichment rate within one screen of 711 sequences | chain 1 T9Y
-0.381 Z-score of the enrichment rate within one screen of 711 sequences | chain 1 L12A, chain 1 P13A
0.535 Z-score of the enrichment rate within one screen of 711 sequences | chain 1 P3A, chain 1 R5A
1.47 Z-score of the enrichment rate within one screen of 711 sequences | chain 1 Q4L
1.26 Z-score of the enrichment rate within one screen of 711 sequences | chain 1 Q4P
1.67 Z-score of the enrichment rate within one screen of 711 sequences | chain 1 Q4Y

screen value | Variant
1.36 Z-score of the enrichment rate within one screen of 711 sequences | chain 1 Q4I
1.4 Z-score of the enrichment rate within one screen of 711 sequences | chain 1 Q4F
-0.277 Z-score of the enrichment rate within one screen of 711 sequences | chain 1 R7A, chain 1 P8A
0.372 Z-score of the enrichment rate within one screen of 711 sequences | chain 1 R7L
-0.0352 Z-score of the enrichment rate within one screen of 711 sequences | chain 1 R7N
-0.481 Z-score of the enrichment rate within one screen of 711 sequences | chain 1 R7G
-0.371 Z-score of the enrichment rate within one screen of 711 sequences | chain 1 R7E
-0.0451 Z-score of the enrichment rate within one screen of 711 sequences | chain 1 R7Q
0.788 Z-score of the enrichment rate within one screen of 711 sequences | chain 1 R7K
0.478 Z-score of the enrichment rate within one screen of 711 sequences | chain 1 R7P
0.194 Z-score of the enrichment rate within one screen of 711 sequences | chain 1 R7V
0.016 Z-score of the enrichment rate within one screen of 711 sequences | chain 1 R7A
0.186 Z-score of the enrichment rate within one screen of 711 sequences | chain 1 R7F
0.221 Z-score of the enrichment rate within one screen of 711 sequences | chain 1 R7I
0.323 Z-score of the enrichment rate within one screen of 711 sequences | chain 1 R7M
0.929 Z-score of the enrichment rate within one screen of 711 sequences | chain 1 N16P
1.29 Z-score of the enrichment rate within one screen of 711 sequences | chain 1 N16A
1.34 Z-score of the enrichment rate within one screen of 711 sequences | chain 1 N16T
2.16 Z-score of the enrichment rate within one screen of 711 sequences | chain 1 N16W
1.5 Z-score of the enrichment rate within one screen of 711 sequences | chain 1 N16G
1.52 Z-score of the enrichment rate within one screen of 711 sequences | chain 1 N16L
1.28 Z-score of the enrichment rate within one screen of 711 sequences | chain 1 N16E
1.43 Z-score of the enrichment rate within one screen of 711 sequences | chain 1 N16H
1.62 Z-score of the enrichment rate within one screen of 711 sequences | chain 1 N16C
1.95 Z-score of the enrichment rate within one screen of 711 sequences | chain 1 N16V
